Measured values reported in US20160297873A1 (VIRGINIA COMMONWEALTH UNIVERSITY, published 2016).

Experiments:
[1] = target: biotinylated DENND1A.V2 specific 21 amino acid peptide … (Biotin-CH22) (human); experiment: QC phage ELISA-1, helper phage control, coating Biotin-CH22
[2] = target: biotinylated DENND1A.V2 specific 21 amino acid peptide … (Biotin-CH22) (human); experiment: QC phage ELISA-2, helper phage control, coating Biotin-CH22
[3] = target: T1, biotinylated DENND1A.V2 specific 21 amino acid peptide QKSITHFAAKFPTRGWTSSSH (Biotin-CH22) (human, biotinylated (position not given)); experiment: ELISA (FIG. 11C)
T1 construct: Immobilised on streptavidin pre-coated plates; The label CH22 is not explained; also called Bio-CH-22; bio-peptide
T1 peptide: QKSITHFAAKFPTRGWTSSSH

**Q.** What does the source list for M13KO7 helper phage?
**A.** phage ELISA signal [1]: 0.477; phage ELISA signal [2]: 0.533

B1: human recombinant DENND1A.V2 specific IgG1 (V2 hmAB) (antibody, V domains shown)
VH: EVQLLESGGGLVQPGGSLRLSCAASGFTFSSYAMSWVRQAPGKGLEWVSIIGTDGDDTNYADSVKGRFTISRDNSKNTLYLQMNSLRAEDTAVYYCAKAEASFDYWGQGTLVTVSS
VL: DIQMTQSPSSLSASVGDRVTITCRASQSISSYLNWYQQKPGKAPKLLIYGASDLQSGVPSRFSGSGSGTDFTLTISSLQPEDFATYYCQQYDSAPSTFGQGTKVEIKR
notes: Expressed in 293E cells, Protein A purified; also called humanized monoclonal antibody; recombinant DENND1A.V2 IgG1
**Q.** Does B1 bind [3]?
**A.** Result: binds
